Test results published in patent US20250289888A1 (GIGAGEN, published 2025).
Where a chain is given by its changes, count along the chain named.

B1: antibody A5 (antibody, V domains shown)
VH: QVQLVESGGGVVQPGRSLRLSCAASGFTFSSYGMHWVRQAPGKGLEWVAVIWYDGNNKYYADSVKGRFTISRDNSKNTLYLQMYSLRAEDTAVYYCARGGILAAGIFDYWGQGTLVTVSS
VL: EIVLTQSPGTLSLSPGDRATLSCRASQSGSSSYLAWYQQKPGQAPRLLIYGASSRATGIPDRFSGSGSGTDFTLTISRLEPEDFAVYYCQQYGTSPFTSGPGTKVDIK
notes: full-length human IgG1 (CHO); also called aCTLA-4.28; CTLA4.A5
B2: antibody A6 (antibody, human IgG1, V domains shown)
VH: QVQLVESGGGVVQPGRSLRLSCAASGFTFSSYGMHWVRQAPGKGLEWVAVIWYDGSYKYYADSVKGRFTISRDDSKNTLYLQMSSLRAEDTAVYYCARAPHYAILTGYYEDYWGQGTLVTVSS
VL: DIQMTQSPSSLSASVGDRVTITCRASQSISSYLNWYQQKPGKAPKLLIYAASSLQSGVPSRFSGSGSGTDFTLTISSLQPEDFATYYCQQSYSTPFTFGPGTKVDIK
B3: antibody A7 (antibody, human IgG1, V domains shown)
VH: QVQLVESGGGVVQPGRSLRLSCAASGFTLSSFGMHWVRQAPGKGLEWVAVIWYDGSNKYYADSVKGRFIISRDNSKTALYLQMNSLRAEDTAVYYCARAHYFGAFDIWGQGTMVTVSS
VL: not shown
notes: full-length human IgG1 (CHO); also called aCTLA-4.3; CTLA4.A7
B4: antibody A10 (antibody, human IgG1, V domains shown)
VH: QVQLVESGGGVVQPGRSLRLSCVASGFTLSSYGMHWVRQAPGKGLEWVAVIWYDGSNKHYADSVKGRFTISRDNSKNTLSLQMNSLRAEDTAVYYCARGGQLGPFDYWGQGTLVTVSS
VL: not shown
notes: full-length human IgG1 (CHO); also called aCTLA-4.22; L10H10
B5: antibody A8 (antibody, human IgG1, V domains shown)
VH: B4 VH with V23A, L29F, S31R, S56R, H59Y, S80Y, V93L, Y95S, G99A, Q101E
VL: EIVLTQSPGTLSLSPGERATLSCRASQSVSYLAWYQQKPGQAPRLLIYGASSRATGIPDRFSGSGSGTDFTLTISRLEPEDFAVYYCQQYGSSPWTFGQGTKVEIK
notes: full-length human IgG1 (CHO); also called aCTLA-4.1; CTLA4.A8
B6: antibody A9 (antibody, human IgG1, V domains shown)
VH: QVQLVESGGGVVQPGRSLRLSCAASGFTFSSHGMHWVRQAPGKGLEWVAVIWYDGSNKHYADSVKGRFTISRDNSKNTLYLQMNSLRAEDTAVYYCARGDILTGYYGYWGQGTLVTVSS
VL: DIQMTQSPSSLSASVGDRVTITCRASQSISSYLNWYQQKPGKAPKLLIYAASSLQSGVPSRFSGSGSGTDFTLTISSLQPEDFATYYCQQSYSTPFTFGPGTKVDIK
notes: full-length human IgG1 (CHO); also called aCTLA-4.24; L9H9
B7: antibody A11 (antibody, human IgG1, V domains shown)
VH: QVQLVESGGGVVQPGRSLRLSCAASGFTFSSYGMHWVRQAPGKGLEWVAVIWYDVGNKYYIDSVKGRFTISRDNSKNTLYLQMNSLRAEDTAVYYCARDYYGSGSPRHFDYWGQGTLVTVSS
VL: DIQLTQSPSFLSASVGDRVTITCRASQGISSYLAWYQQKPGKAPKLLIYAASTLQSGVPSRFSGSGSGTEFTLTISSLQPEDFATYYCQQLNSYPPTFGQGTKVEIK
notes: full-length human IgG1 (CHO); also called aCTLA-4.31; L11H11
B8: antibody A2 (antibody, human IgG1, V domains shown)
VH: QVQLVESGGGVVQPGRSLRLSCAASGFTFSNYGMNWVRQAPGKGLEWVAVIWYDGRNKHYADSVKGRFTISRDNSKNTLYLQMNSLRAEDTAVYYCARGGDWGPYFDYWGQGTLVTVSS
VL: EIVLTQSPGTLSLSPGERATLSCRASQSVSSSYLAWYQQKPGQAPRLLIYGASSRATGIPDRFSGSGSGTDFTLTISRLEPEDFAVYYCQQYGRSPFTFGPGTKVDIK
notes: full-length human IgG1 (CHO); also called aCTLA-4.4; CTLA4.A2
B9: antibody A3 (antibody, human IgG1, V domains shown)
VH: B8 VH with A23I, N31S, N35H, I51N, R56S, D101V
VL: not shown
notes: full-length human IgG1 (CHO); also called aCTLA-4.2; L3H3
B10: antibody A13 (antibody, human IgG1, V domains shown)
VH: B8 VH with N31S, N35H, H59D, F68I, D101L, W102L
VL: not shown
B11: antibody A1 (antibody, human IgG1, V domains shown)
VH: QVQLVESGGGVVQPGRSLRLSCAASGFTFSSFGMHWVRQAPGKGLEWVAVIWYDGRNKYYVDSVKGRFTISRDNSNNTLYLQMNSLRAEDTAVYYCARGEFFGEFFDYWGQGTLVTVSS
VL: B1 VL with D17E, R18G, G29F, S32N, S99F
B12: antibody A4 (antibody, V domains shown)
VH: QVQLVESGGGVVQPGRSLRISCAASGFTFSSYGIHWVRQAPGKGLQWVAVIWYDGRNKYYADSVKGRFTISRDNSKNTLYLQMNSLRAEDTAVYYCSRSGSFGAFDIWGQGTMVTVSS
VL: B1 VL
notes: full-length human IgG1 (CHO); also called aCTLA-4.29; L4H4
B13: GIGA-564 (antibody, V domains shown)
VH: QVQLVESGGGVVQPGRSLRLSCAASGFTFSSYGMHWVRQAPGTGLEWVAVIWYEGRNKYYADPVKGRFTISRDNSKNTLYLQMNSLRDDDTAVYYCARAGDLGAFDIWGQGTMVTVSSA
VL: not shown
notes: fucosylation differs between lots (77-95 %); also called antibody A14; aCTLA-4.15
B14: Ipilimumab analog (antibody, human IgG1, V domains shown)
VH: QVQLVESGGGVVQPGRSLRLSCAASGFTFSSYTMHWVRQAPGKGLEWVTFISYDGNNKYYADSVKGRFTISRDNSKNTLYLQMNSLRAEDTAIYYCARTGWLGPFDYWGQGTLVTVSSA
VL: not shown
notes: also called Ipi analog; in-house produced ipilimumab

What was measured:
[1] = target: human CTLA-4 expressed on cells (human, UniProt P16410 36-223); test: cell-based or functional assay
Sequence of human CTLA-4 expressed on cells (P16410 36-223 limits assumed): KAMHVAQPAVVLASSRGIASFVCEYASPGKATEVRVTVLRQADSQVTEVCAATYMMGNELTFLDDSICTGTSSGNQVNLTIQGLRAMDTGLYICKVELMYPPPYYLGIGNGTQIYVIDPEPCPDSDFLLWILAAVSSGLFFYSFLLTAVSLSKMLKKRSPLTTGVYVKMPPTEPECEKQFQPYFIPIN

[2] = target: T1, recombinant human CTLA-4-Fc (human, UniProt P16410 36-162); test: blocking ELISA: plate-bound rhCTLA-4-Fc, mAb titrated, rhCD80-His binding detected
T1 construct: bought Fc chimera; also called rhCTLA-4-Fc; rhCTLA-4-Fc chimera; Fc part of the bought chimera not given
T1 sequence (P16410 36-162): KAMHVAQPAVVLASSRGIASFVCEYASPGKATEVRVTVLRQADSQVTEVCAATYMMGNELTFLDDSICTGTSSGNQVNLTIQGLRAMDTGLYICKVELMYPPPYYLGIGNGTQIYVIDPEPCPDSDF
Method: (§1) Plates were coated with rhCTLA-4-Fc and then blocked with 1×PBST with 5% w/v nonfat dry milk. After blocking a dilution series of the indicated antibody was added to the plate.

[3] = target: T1, recombinant human CTLA-4-Fc; test: blocking ELISA: plate-bound rhCTLA-4-Fc, mAb titrated, rhCD86-His binding detected
Method: as §1

[4] = target: T2, mouse CTLA-4 (mouse, UniProt P09793 36-162, limits assumed); test: BLI (Octet), captured mAb, soluble mouse CTLA-4
T2 construct: antigen of the anti-mouse CTLA-4 BLI measurements; also called murine CTLA-4
Method: The binding specificity and affinity of each full-length antibody towards CTLA-4 were determined using biolayer interferometry (BLI) and/or surface plasmon resonance (SPR). Anti-cyno CTLA-4 and anti-mouse CTLA-4 affinities were tested using ForteBio (BLI). Anti-human CTLA-4 affinities were measured using Carterra (SPR).
For BLI, antibodies were loaded onto an Anti-Human IgG Fc (AHC) biosensor using the Octet Red96 system (ForteBio). Loaded biosensors were dipped into antigen dilutions beginning at 300 nM, with 6 serial dilutions at 1:3. Kinetic analysis was performed using a 1:1 binding model and global fitting.

| Binder | Promega assay antagonist (EC50. ug/mL) [1] [µg/mL] | CD80% inhibition [2] [%] | CD86% inhibition [3] [%] | binding result [4] |
| --- | --- | --- | --- | --- |
| B1 | 0.18 | 96.3 | 90.6 |  |
| B2 | 0.18 |  |  |  |
| B3 | 0.17 | 92.1 | 78.8 | no binding (tested: antigen dilutions beginning at 300 nM) |
| B4 | 0.26 |  |  | no binding (tested: antigen dilutions beginning at 300 nM) |
| B5 | 0.15 |  |  | no binding (tested: antigen dilutions beginning at 300 nM) |
| B6 | 0.19 |  |  | no binding (tested: antigen dilutions beginning at 300 nM) |
| B7 | 0.42 |  |  | no binding (tested: antigen dilutions beginning at 300 nM) |
| B8 | 0.12 | 95.4 | 91.5 | no binding (tested: antigen dilutions beginning at 300 nM) |
| B9 | 0.18 |  |  | no binding (tested: antigen dilutions beginning at 300 nM) |
| B10 | 0.09 |  |  |  |
| B11 | 0.13 |  |  |  |
| B12 | 0.15 |  |  | no binding (tested: antigen dilutions beginning at 300 nM) |
| B13 |  |  | 54.5 |  |
| B14 |  |  |  | no binding (tested: antigen dilutions beginning at 300 nM) |
